Among the data in patent US20150376275A1 are KIR occupancy values, retold here.

Assay [1] addresses KIR (KIR2D receptors; KIR2DL1 and 2/3) on the patients' NK cells. Put plainly: receptor occupancy on patients' NK cells by flow cytometry after a single i.v. dose of 0.0003 mg/kg (AML dose-escalation trial). (In general: Flow cytometry measures light scatter and fluorescence of single cells or particles in a stream.)
For assay [2] the target is unchanged. Briefly: receptor occupancy on patients' NK cells by flow cytometry after a single i.v. dose of 0.003 mg/kg (AML dose-escalation trial).

As to “fully human anti-KIR2DL1, 2 and 3 monoclonal antibody 1-7F9”, the KIR occupancy was found to be 50% in assay [1] and 90% in assay [2].
